Drawing on the RNAGym collection of RNA variant scans (doi:10.7554/elife.80360), this text covers self-cleavage for 167 variants.

B1: CPEB3 Ribozyme (parent)
chain: GGGGGCCACAGCAGAAGCGUUCACGUCGCGGCCCCUGUCAGAUUCUGGUGAAUCUGCGAAUUCUGCUGU

Variants of B1 are the subject of this data set. As to the kind of experiment: self-cleavage, relative activity (ratio to wild type); higher = more cleavage; co-transcriptional.
As for U53C C54A, the self-cleavage amounted to 0.506. In the case of U53C C54G, the self-cleavage was determined as 0.424. As for C54U C57G, the figure is 0.407.

For C54U C57U, the self-cleavage worked out at 0.385. Next, C54U C57A: 0.413; U53G C66A: 0.629; U55A G58U: 0.988. As for U55A G58C, the figure is 0.993; as for U55G G56A, 0.963; as for C54U A60C, 0.211. As for C54U A60U, the figure is 0.468.

On to U55C A59U, for which the self-cleavage was 0.545. Next, G56A C66G: 0.744. Regarding G56A C66U, the self-cleavage turned out to be 0.929. Next, C54G U62A: 0.59. U53A U69A: the self-cleavage was 1.01. As for U53A U69G, the figure is 1.05; as for U55G A60C, 0.296. Next, U55C G56U: 0.686; U55G U69A: 0.953; U55G U69G: 1. As for U55C U61A, the figure is 0.604. On to U55C U61C, for which the self-cleavage is 0.407.

Turning to U53C C63A, the self-cleavage was found to be 0.402. U53C C63G: the self-cleavage worked out at 0.451. As for C54U U69G, the figure is 1.06; as for C54U U69C, 1.07. In the case of U55G C66A, the self-cleavage worked out at 0.437. Next, U55G C66U: 0.681; U53A G65U: 0.587; U53A G65A: 0.739.

Regarding U53A G65C, the self-cleavage worked out at 0.552. As for C54G G68C, the figure is 0.947. Next, C54G G68A: 0.99. Next, C54A A60U: 0.308; C54A A60G: 0.584; U53A U55A: 0.354.

For U53G A60G, the self-cleavage is 0.793.

For U53G A60C, the self-cleavage was found to be 0.308. In the case of U53G A60U, the self-cleavage was found to be 0.301.

Consider C54A C66A, for which the self-cleavage is 0.45. For the variant C54A C66U, the self-cleavage amounted to 0.911.

As to U55A U61A, the self-cleavage is 0.635. In the case of U55A U61G, the self-cleavage was determined as 0.6. As for U53C U61G, the figure is 0.58; as for C54U G56C, 0.466. As for C54U G56A, the figure is 0.923; as for C54U G56U, 0.75. With G56A G58U, the self-cleavage came to 0.994. Next, G56A U62C: 0.732; G56A U62A: 0.811; G56A U62G: 0.775. As for U55G U62C, the figure is 0.517. Turning to U55G U62A, the self-cleavage was found to be 0.427. Next, U55C G68C: 0.977. Regarding U55C G68U, the self-cleavage came to 0.908. As for U53A U61C, the figure is 0.583; as for U53A U61A, 0.694; as for C54A G65U, 0.519. As for C54A G65A, the figure is 0.629; as for C54U U62C, 1.02; as for C54U U62G, 0.951. As for C54U U62A, the figure is 0.901. In the case of C54G A60G, the self-cleavage is 0.541. As for C54G A60C, the figure is 0.282; as for C54G A60U, 0.393; as for C54U C63G, 0.859. Next, C54U C63A: 0.797; C54G C57A: 0.348; C54G C57G: 0.274. Next, U55G G68C: 0.972; U55G G68A: 0.951; G56A C57U: 0.308.

With G56A C57A, the self-cleavage was 0.413.

With G56A C57G, the self-cleavage turned out to be 0.306. As for C54U A59U, the figure is 0.883; as for C54U A59G, 1.04; as for G56A G68A, 0.995.

In the case of U55A U67C, the self-cleavage came to 0.906.

In the case of U53C G58C, the self-cleavage came out at 0.94. As for U53C G58A, the figure is 0.85.

Regarding U53A G68C, the self-cleavage worked out at 1.03.

With U53A G68U, the self-cleavage is 0.978. Next, U53A G68A: 1.03; U53A U64A: 0.822; U53A U64C: 0.693.

U53A U64G: the self-cleavage was determined as 0.626.

Take C54A G56U: the self-cleavage came out at 0.471. As to C54A G56A, the self-cleavage turned out to be 0.695. With U55C G65C, the self-cleavage worked out at 0.416. Next, G56C C57G: 0.343; G56C C57U: 0.483. As for G56C C57A, the figure is 0.3. As for U55C U67C, the figure is 0.912; as for G56U, 0.968; as for G56A, 0.977.

In the case of G56C, the self-cleavage was 0.871. As for U55A C63A, the figure is 0.464. Next, U55A C63G: 0.438; G56C A59U: 0.392; C54G U64G: 0.533.

Regarding U53A A59C, the self-cleavage was found to be 0.571. As for U53A A59U, the figure is 0.646. As to U53A A59G, the self-cleavage is 0.98. Next, U53C U69G: 0.993; U53C U69C: 1.05; C54G C66U: 0.821. As for U53G G65U, the figure is 0.606; as for U53G G65A, 0.707. With U53G G65C, the self-cleavage is 0.704. As for U55G U67A, the figure is 0.884; as for U55G U67C, 0.612. Next, G56C U69A: 0.874; G56C U69G: 0.925; G56C U69C: 1.02.

On to U55A A59U, for which the self-cleavage was found to be 0.456. Next, U55A A59G: 0.981; U55A A59C: 0.394. Consider C54G G65U, for which the self-cleavage was found to be 0.587.

C54G G65A: the self-cleavage was 0.663.

Consider U55G G58C, for which the self-cleavage amounted to 0.964. As for U55G G58A, the figure is 0.644; as for C54U C66A, 0.845. Next, C54U C66U: 0.975; C54U C66G: 0.837. Next, G56U C63G: 0.485. Consider G56U C63U, for which the self-cleavage is 0.842. As for G56U C63A, the figure is 0.51. As for U55G G65A, the figure is 0.408; as for U55G G65C, 0.417; as for U55G G65U, 0.307. Next, U53A U62C: 0.634; U53A U62A: 0.821; U53A U62G: 0.74. Take C54U: the self-cleavage stood at 1. Next, C54G: 0.951; C54A: 0.944. Next, G56A A59G: 0.649; G56A A59U: 0.735. C54U U61G: the self-cleavage came out at 0.779. Next, C54U U61A: 0.933; U53C A59U: 0.618. Consider U53C A59G, for which the self-cleavage was 0.944.

On to U53C A59C, for which the self-cleavage turned out to be 0.525.

U55A A60U: the self-cleavage was 0.298.

On to U55A A60G, for which the self-cleavage was found to be 0.615. Next, G56U C57G: 0.384; C54G U67C: 0.819. Next, C54G U67G: 0.925. U55A U62G: the self-cleavage was found to be 0.531.

For U55A C66G, the self-cleavage was determined as 0.68. As for U55A C66A, the figure is 0.561; as for U55A C66U, 0.944.

With A52U U69G, the self-cleavage is 1.04. As for C54A C63A, the figure is 0.538. Next, C54A C63G: 0.445; C54A C63U: 0.796; U53C C66G: 0.477. As for C54U G65C, the figure is 0.561; as for C54U G65A, 0.884. For the variant U55A G65A, the self-cleavage was found to be 0.581.

U53C C57U: the self-cleavage was 0.43. As for U53C C57G, the figure is 0.398; as for U53C C57A, 0.346. G56U A59G: the self-cleavage worked out at 0.909. C54U U55C: the self-cleavage is 0.888.

Consider C54U U55A, for which the self-cleavage was 0.924.
